Data: publication doi:10.1101/2021.04.19.439022, “Bacteriophage λ RexA and RexB Functions Assist the Transition from Lysogeny to Lytic Growth”

Molecular target: T1, RexA (Bacteriophage lambda, UniProt P68924 1-279)
T1 sequence: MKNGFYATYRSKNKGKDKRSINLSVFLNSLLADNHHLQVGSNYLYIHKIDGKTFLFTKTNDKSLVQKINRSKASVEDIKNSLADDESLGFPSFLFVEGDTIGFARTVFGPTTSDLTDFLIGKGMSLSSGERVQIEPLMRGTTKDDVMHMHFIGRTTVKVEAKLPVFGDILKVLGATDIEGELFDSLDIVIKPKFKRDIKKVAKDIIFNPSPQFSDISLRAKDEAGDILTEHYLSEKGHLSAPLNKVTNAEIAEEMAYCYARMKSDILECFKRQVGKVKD
Assay: filter binding; 2 mM Mg2+; Filter binding: 25 mM MES pH 6.5, 2.0 mM MgCl2, 0.1 mM DTT, 0.01 mM EDTA, 40 ug/mL BSA, 30 C, 10 min, 14.5 nM unlabeled + 0.5 nM labeled DNA; SEC: Superdex 200
Conditions: protein: recombinant, tags: C-terminal 6xHis (pET21b), chain copies: 2, 5' overhang 1 nt at both ends

| Binder | binding result | binding result (label: 5'-32P) |
| --- | --- | --- |
| OR1-OR2 (dsDNA, m5C at position 8 of upper strand and position 10 of lower strand) DNA 1: AGATCTACCGGTAGAGCTT DNA 2: TAAGCTCTACCGGTAGATC | binds | – |
| OR1-OR2 scrambled (dsDNA) DNA 1: AGATCTACCGGTAGAGCTT DNA 2: TAAGCTCTACCGGTAGATC | – | binds |
